# Legend:
# Assay type in all cases: biochemical, Quillaja saponaria
# [1] = Experiment 6-1: screening of rhamnosidases for derhamnosylation of saponins in treated bark extract (2%), QS-17 2310 to QS-18 2164 (PAR %); conditions: TBE 2%, pH 7.5, 30 degC, 18 h; TIC peak area ratio percent, LCMS/MS; negative controls 3.061, 2.429
# [2] = Experiment 6-1: screening of rhamnosidases for derhamnosylation of saponins in treated bark extract (2%), QS-17 2296 to QS-18 2150 (PAR %); conditions: TBE 2%, pH 7.5, 30 degC, 18 h; TIC peak area ratio percent of rhamnosylated starting saponin to derhamnosylated product, LCMS/MS; negative controls 4.876, 5.225
# [3] = Experiment 6-1: specificity of rhamnosidases towards other rhamnose residues (C3 saccharide rhamnose, C28 saccharide rhamnose); conditions: TBE 2%, pH 7.5, 30 degC, 18 h; LCMS/MS; negative controls 0.18, 0.17
# [4] = Experiment 6-1: screening of rhamnosidases for derhamnosylation of saponins in treated bark extract (2%), desglucosyl-QS-17 2134 to QS-21 1988 (PAR %); conditions: TBE 2%, pH 7.5, 30 degC, 18 h; TIC peak area ratio percent, LCMS/MS; negative controls 2.719, 2.158
Molecule,Peak57 (PAR %) [1],QS-17 (PAR %) [2],ratio PP/QS-21 [3],Peak75 (PAR %) [4]
"997 (protein, Lachnoclostridium phytofermentans) MKSFIKELIEQKEGNYILPFFWQHGESEGKLREYMEAIHSCGIRAVCVEARPHPDYLGPGWWHDLDIIIDEAKKRDMKLWILDDAHFPTGYAAGKIAESEDKYCKQYISRKFIDVSGPTPEVEVNLAAMMMPIMLPSGLNLEMFGMSSEKKRYFTDDRILSIRAYQMDKDSSLIGEGIDLTTNIVNGKLIWDVPKGTWRINVLFITRNGEGRCDYINMVDKDSCRIQIDAVYEPHYEHYKEEFGKTIAGFFSDEPCLGNSIGYNFDESIGKKKTPLPWSSQLEKMLEEKLGKEYLPYYPALWTDMADEKVNARVRYAYMDCVTRLVEENFSRQIGQWCEERGVEYIGHIVEDNNQHSRLGSSQGHFFRSMMGQHMSGIDNIGDQVLPGGENHKREALLGADKDGEFYHYELGKLGSSLAHIDPKKQGRAMCEIFGAYGWRLGIRTMKYLMDHFLVRGINVYVPHAFSPKDFPDSDCPPHFYAGGEDPQFNYFKKLMHYTNRMCHLLNGGTHIAPAAVLYHGEAEWTGGCMFNQKVARELLESQIDFDILPSDVFADMSAYNATFDGFLQVNGESYDCFIVPYAEFITKEVAVFAGTASKKGFPVFFVQGLPESICNIDKKEEEKLLLDGMSECIVVPLEALSKTLKDNKLFEISSDNQFDGLRYYHYRKEQTELYMFSNESIGKEYNGWITVKSKGEVSLYDAMDNRIIPAEYRNTEDGTSIHIRLTPYQSVVALFEDLKEVEDQGNFEAKPGYRLDAAWRISSAEVSKYPEFQPVEVTTELKSMGRVLPDFSGYLRYESEFVYDRMPTGRELLNITDVYEGAEVWLNGHCLGMKICPPYQFPLGEALRAGENHIRIEVATTLDRKVKSLPQDMRSLMFYSKITEPTGIVGSVEIWN",2.906%,4.754%,0.17,2.115%
"1038 (protein, listed as Formosa agariphila) MILHKSVFKSYIYVLTYFVFFSVMSCENSSVLQEAKHLTISEGFKNPLGFYDAKPTFSWELPVVEGVISQSAYQIVVASSPDLLPNNPDLWDSNKQSSSQSVWINYEGKPLVSRQKVFWQVKYWNQDDKASNWSPVQNFELGLLNNSDWKAKWIGLPTKEEGVLGSQDNIIHRPQYLRKVFELSNDVANARLYITAKGVFDVAINGEDVSDDVMPPGYTPYKKRIETITYDVTDLIESGQNTIGVEVAAGWHSGRLGWMKSYWSDTESPKILCQLEVTMKDGSKASIISDDTWKATTQGPIRISEIYDGETYDAHLEMPHWTTNSFDDKNWKAVQAFPVTSTIKLEPKRHTTVKSKIVLESKEIILKADAAIFDLQQNMVGVPLLKVPMKMGDTLKIRFAEMLSPDGTFYTDNYRSAQSTDYYIAAKEGTIEWMPKFTFHGFRYVELSGFDASKTPSKNWVKGVVQYSNFNENGSFTSSHEKLNQLQSNIVWGLRGNFFDIPTDCPQRDERMGWTGDAQVFGPTSMFNADVYKFWASWMQSVRESQYDNGGIPFVVPDVLHNGKVSSGWGDVCTIIPWKIYYRTGDVGILEENYDMMKKWVAHHQATSKDFISHMNSFADWLQPYPENGNNKGDTSHSLIGTAFFAHSAKLTAKTAEVLGKKEEQATYEALYKSVAKAFENAFFKNGKVKDVTATQTSYLLALAFDLLSEENKENAKQQLLEKISEADNHLRTGFLGTPLLSEVLDETGEIDLMYKLLFNETYPSWFYSINQGATTIWERWNSYSKAEGFNPMKMNSLNHYAYGAIGEWMYERITGIAPLQAGYKIISIAPIPKAPLTSASATLNTPYGEVASSWEIKNETLFLEVVVPPNTTAEIEIPTDNSESLKVDNENFTNGKNLKLIKNEKRKIKILAQPGTYEFQAKYSL",2.913%,4.725%,0.18,2.512%
"1045 (protein, listed as Acidobacterium capsulatum) MLVGGLATAATAQTNLQQLEKTFQNPPDNAKPMLRWWWFGPSVTKPEILREMQQIKAGGFGGFVIHYVYPLALDDPQTGFRNLPFLSPAMLSDVSYANRQAHALGLRAGTALASGWPYGGPMTAVTEAAAKIVQKESTVAPGAHSVALPSIGNGQKLLAVFAQDGSAGSQQKMLPLPAPVTLRMAIPTGTHIVDWYLMSRTGQQVKRAAVDANGFVLDHFSHHAVADHLKNVGDKLVAAFGSEPPDSVFSDSLEVFGADWTPDFLEEFRKKNGYSLLPYLPDLFMKHPDAQALAVRHDWGVTLTALIDENYLTQVNAWARAHHTHLRAQVYGPPAVSLSSNNLVDLPEGEGPQWRQFAYTRWATSAGHLYGRPIISSETFTWLHSPAFRATPLDVKAEADRFFLQGVNQIYCHGWPYSPPSAGEPGWRFYAAAVFDAHNPWWIVMPEVTQYLQRVSWIMRQGAPANRVAIFLPEDDAWAAFTPGQVALTGLLPRWITPQLTQAIENSGYDFDYIDAAAIQARGIHYSLLILPNVDRISPAALTAIQQYEKSGGKVIALGRIPAHAPGFLHYEQISAEVNRESHAFFGHPGARVRVVQAVSGLGDALHQMLTPAMTLSAAKPAVGFVRRKLDDADIYFLANTSNVSIHTVAHLRSRYTSGTWLDPMSGKAYAAQSRNGGWPLHLAPYGSTILVLHAKNVRLPVAAGHDSFNPSSTKAIADLSSDWNVSFPALHLQEPMATLASWTKNEKTLYYSGVAVYRRTLEVAQNDLDHAPLLLSFGQGTPVSPSAFHRQMGTRAWLNPPVHVAAVVYVNGRLAGTVWHPPYVLAVGGLLKPGANQIEVRVANTAINEMAGKSLPDYRLLWARYGRRFEPQDMKHLQPLPSGLLGKVELLEGESR",2.865%,4.741%,0.17,2.442%
"1056 (protein, listed as Solitalea canadensis) MKPIITNLMLLLFAGAASAQSSKELYRSKEFSIYTDKVVQGKYIAKVLSPTEMTSDYQSPVNLYKSPKLTFKFSINGKDNEMISGQDHSINVMAKDGKFISPLITFGKHYVDKKNVPDNTYLEPNIDFTIRLDMRNVLNAFKTDGFYKGADGKKVYKEDFKGVYVAGSTLPLIWDFDNLVHHPDLQLKDDDGDGIYEVKVVLNEFKEQPSVSSNWKLKRNISAFPQYQASSPIENAMYNLSLDEMENAIEADSTLRTGKEWAGVWTRDVSYSIILSMAILQPKVAEYSLLRKVKNDRIIQDTGTGGAYPVSTDRMIWAVAAWEIYKTTGDKNWLSKAYSIIKNSIEDDWKNAYDPKTGLVKGESSFLDWREQEYPKWMQPADIYESECLGTNVVHFQANKVFAEMAILLGQKTVSDEHNAIAQTIKTGINNYLWIANKGYYGQYLYGRNYKILSPRSEALGEALAVIFGVADNERQKTIVRNTPVNSFGIPCFYPQLPNTPPYHNNAVWPFVQTYWALAAANAGNEQSVMESIAAIYRPAALFLTNKENFVADNGDFAGTQINSSNMLWSLSGNIALVYKVLFGMQFGADRLTFKPTVPQALAGTRMLTNFKYRNALLTISMQGFGTQIKSITMDGKPLVNAIVPASLTGKHTIKMVLTNMMESSSTTILPAYTSLTIPQVELKNDEIVWKKVPNAVSYVFIKNGDRIDNGIDTACIINNNSFAEYQVIAVDKNGVESFGSEPLQIIPEQTVKTIEIENLTSKADLPYKGYSGDGFVEISTQKNTILSFETTITEAGTYAINFKYANGNGPINTENKCAFRTLKLNNKQVGTVVLPQRGTNEWSEWGMSNSVIVELKAGTNKFDLTYETNNANMNGTVNQAMLDYVRIVKVE",2.796%,4.774%,0.17,2.416%
"1032 (protein, Spirosoma linguale) MRYIFFLGLLAASLTAFAQTAPTNLRTDLLLHTDKVWSNGFLTNYTLDGADSAKFAGQLALIRSSRPSFSWVLSTAGGTSRQTAYRLILSTSRQKNQADAGDVWDSGKVMSSQSVGILLPASQKLDTNRIYFWKVKVWNERNLESDFSQPKAFRTAPRLTAYETPFYPLVKTEEAPRSQRTLAGQRIVYDFGKDAFGQAFLTVSSASESDTLIVHLGEAVTADGHVNEKPSGTLRYRQIRVPLQKGTHRYAIQFKPDKRNTGPKAILMPDYIGEVLPFRYVELAFNPATRIEQIVRQVVTYPFDDSATTFSSSDSTLNQIWDLCKHTIKATTFTGYYVDGDRERIPYEADALLNQLSHYATDAEYNMAKRSLNYLVFHATWPTEWSLQNVLIAWYDYLYSGDSRTVEALYPELKAKLLLPLARPDGLISTRTGLQTPEFKKSIHYDTFDGRPTIQDIVDWPQQGVLGLGKKEAGETDGFVFTDYNAVVNAFHYQGLVFMAQLASRLGKTDDAAFYANRAGLVRKAFQATFIHPKTGLVRDGEGTDHASLHANMMALAFGLVPEKLQSQVLAHIRSRGMACSVYGSQFLLDALYNANESAYGLALMTSTDERSWYNMLRTGSTMTTEAWDTRYKPNQDWNHAWGSAPANIIVRKLMGVEALTLAYETVQIKPQPDTLRQASLQVATLRGPISVAFDNTPDRFVLRTTLPANTNGVVYLPRKKTKSQVLQNGKSVKAAVEGNFWKITSVGAGTHEWEVR",3.044%,4.730%,0.17,2.411%
"1057 (protein, listed as Parabacteroides goldsteinii) MKVDITKIFTILFVIAFAGCLLQSCNSSINGLEQGFFNPPDSVRPGVYWYFMDGNLSKEAMTKDLESMKEAGIGHVVYLEVNVGVPRGSVDFLSDEWQEMFAHAVAECERLGIDITLGVGPGWTGSGGPWVEGAQSMMHLVSSSVNVSGKGKKTIALPKPSPKPHFFAEDNFTPESKKRWEEYYEDVAVLAFPAGASTFGTDYEAGSAYLRITGIEEKALYYRKPYSSVTQVKPYLTFGKDSFTVQTVDKDCIIDLTDHLEIDGTLTWEVPEGDWTIMRFGARNNGAVTRPAPHPGVGLETNKFDTTALNAHLDKFVTKLFNRVGFKKAQPQGGLQMLHMDSWEMGAQNWTTHFREEFTKRRGYDPQPFYPVYAGFIVQSREESERFLWDLRVTSQELIKEYHAGHIKSYGKRYGLGLSIEPYDMNPTADLELASVADMPMCEFWSVGYGYNTSFSAMEGTSVAHLLGQPVVPAESFTAYLDGWRQHPGSMKNQTDWALASGINRLMFHTFQHQPLNDRLRPGMTMGPYGVHWDRNQTWWPMADAYHRYISRCQLLLQQGRTVADILYLTPEGAPHVFRAPISALEGDLLDTDNLFNFRNETPLPDRKGYNFDACPPSLFYDAQVKDGKVVFPSGVSYRLLVLPCFETMTPELLEKIRDLVNGGATVVGLPPQKSPSLVNYPVCDEKVRVLVQELWGGYEIPETVEIRSIGKGKVIWSKELLEQQDNLYPTYEYTADILAKMDVHEDFESTGEIRYTHRTMKGYEIYFVSNRKDSPVTVNCKFRMTGHPELWNPMTGEIRPLAEYTVTGVHTTIPLLFDANEGYFIVFRDNTFQREIQTKKNFPDSRRVASLTAPWSVSFDPAWGGPEQVTFEKLTDWTQHPDSGIRYYSGTAIYRQTFDRPADNSKQQFLDLGKVKNLARVRLNGQDLGVVWTAPWRVEITKALKLKDNQLEIEVVNLWPNRLIGDEQLPDDGIRNGEWPEWLKDGGPRTSGRYTFTTYKHFTKESPLLESGLLGPVTIWGIDN",3.213%,4.670%,0.15,2.498%
